Reference: a protein production outcome set (Wang et al. 2014)

test: label from the status in PepcDB records

Row | Sequence | protein production
1 | MLTLALCIMILFTYLCMFFNFKYSAHLSIYISQVILGYVVIIIHIGEHTLPIDILVVMSLGALLLHIKHKHLMQNRMSALFLKRLYYVAFKLVVFTLACFYISLIPIGINVIFLWISAISFSALFTFICYMMCSSNFLNLNNKPDFDVILVLGAGIFTENVTPMLASRLDRALTLYVQQPNAKFIVSGGQGPDEPISEALAMKRYLIHHGVESNHIMLEDQSTSTSENIQFSKSLIESHFECVPKIVCVTSQFHIMRALRFGQKFNLKLTGVGSHTPYHFFEIALIRDFLALMYQYKLLLTVYFAALFFICIITYWFIPSIPL | failed
2 | MLTLLPTPIGNLQDITLRSLEVLKVAEIILCEDTRVSKRLLSLLSQKELLPPKEYRYISLHSHNEEATLQNLPPDFFTQEVVYMSDAGMPCISDPGAALVRYAQERGISYTVLPGA | failed
3 | MLTTTRRAALISGLATTGLAAFGNRAFAQETGAVGAAVDKFAQDVMAAFPDQPGLGITVVENGQITLAKGYGVKALGGQDRCDESTVFGIASNTKAMTAALLAMLVEEGRVEWDAPVTQYLPDFAMKDPIVTKLLTVRDLLVHRSGLSLGAGDLMIWPAPTHTRAEIVAGLKHLPIGGQFRGGYAYDNVLYVVAGAVIEAVTGQTWEQVIKARIFDPLGMSNTVSSPRLVDQSRRALPHARLGPPVRGLGPQKVLPFDASFDAAGPAGGVNSCPADIGKWMQVQLGRGVSADGKRLWSEAQAREMWKPQTITSSSDGPSNENPARPSMQAYALGWYVQDHRGERLLWHTGGLAGFISYTGLLPGRKSGIMIMTNAEENPVLRSLRFGGPDRLQGRSDFDWIASSKRVQAEADAQTIKDAAAATTPKGGGAPPSLPLEAYAGVYRDPWYGTVTISVTGKGKKKGLYVSFDKTPLLRGKLGPFDGETFITTFEDRTQEDAFFTFDIKDGKAVSALVKAVSPLADFSYDYHDLRLTKEG | failed
4 | MLTVRNHPGVMSHICGLFARRAFNVDGILCMPLAGGEESRIWLQVLDDQRLQQMISQLEKLEDVLQVCRFDSEMPIFDQVEDLVAHQR | not failed
5 | MLVGNYDATLVLTSLFVAILASYTALGMAGRVAASRGVAARVWLGGGAFAMGLGIWSMHFIGMLAFSLPIPLGYDVALTVASMALAVACSAFALWVVTRATLPWRRLAGAAALMGTGIAAMHYTGMAAMRMHPAIEYSPALFMLSVAVAIVASGAALWITHALRHNRPGAPAYRICAAIVMGLAIVGMHYTGMAAANFPQGSVCMAANSGISAGWLAVSTAAVTLAVLAVALVVAVLDTRLETRTSALNASLAQANEELVQMALHDTLTKLPNRALLDERLKQAIIRATAAGRGFSLLFIDLDGFKAINDAYGHGAGDLLLVEMAQRIKRAMRPQDCVARLGGDEFVVLADLPDPNDAAGLAERLIDTLTVPAEVQGHEVSVAASIGIALFPGDGADASTLLAHADAAMYHAKRLSQTHRVSFFEPSMNEDALEQLQLLQDLRLALPRNQLELHYQPKFVAPAGPVVGAEALLRWNHPTRGVIGPTVFIPIAERTGLIFSIGAWVLDEACRQMRQWRDMGHADWTVAVNLSSLQFSQPDLIDSIRATLARHDLPPRCLAIEITESTAMRDAEASLTVLRELAELGVSISIDDFGTGYSSLLYLKRLPATELKIDRGFVNQLEHDNEDAAIVSAIIALGQKLNLKIVAEGVETLAQQSFLTEMGCDSLQGFLLGRPLPAAEFLAHTLQPQLA | failed
6 | MLVSCAMRLHSGVFPDYAEKLPQEEKMEKEDSFPQRVWQIVAAIPEGYVTTYGDVAKLAGSPRAARQVGGVLKRLPEGSTLPWHRVVNRHGTISLTGPDLQRQRQALLAEGVMVSGSGQIDLQRYRWNY | failed
7 | MLVSSSKITRAREMVTKTEEKQLNQLEIQVDNGGGGTWEYLCLVRNLKVRRSEKVLKHGSSILNDQKKRSALGPDEWTLNEQVAIAAMDCQCLGVAQSCIKALQTKFPGSKRVGRLEALLLEAKGLWGEAEEAYASLLEDNPLDQAIHKRRVAISKALGKPSIAIELLNKYLELFMADHDAWRELAELYLSLQMYKQAAFCYEELILSQPTVPLYHLAYAEVLYTIGGVENIISARKYYAATVDLTGGKNTRALLGICLCASAIAQLSKGRNKEDKDATAAPELHSLAAAAVEKEYKQKAPDKLQLISSALRILKT | failed
8 | MLVTGVARQLGGRFVRRIQRDPNVDRVIAVDAVRPEHHLGGADFIQADIRQPTIARVLAEHSVDTVVHMDVTGTALGTGSRATVKETNVIGTMQLLGACQKSPTVKRLVVKSSTNVYGSAPRDPAVFTETTPPKSLPSGGFAKDTVEVEGYVRGFARRRPDVAVCVLRFANILGPSADSPLASYFSLPVLPTVFGYDPRLQFAHEDDVIDVLRIASYEPRRGTLNSGTFNVAGDGVLLLSQCARRLGRPTVPLLLPAVTWVGSAVRTLGMTDFSPEQIRLLTHGRVVATNQMRETLGYVPKYTTAETFADFARSRGPGLLPPEALAGAVDRIAALPALGGGHPPTQSAN | failed
9 | MLVVYIALMICTMTPVLALQAGADMSVLVWLVFGLVIVKAVLLVDHFMEMKHAPWGWRMAAQGWAVVVVSVLAGIHLAG | failed
10 | MLWRPVGHGVEALYLATPLGRRVGYGVYVYRYRGLLVDTGPPKARPFAPEAALLTHAHEDHAGGAFRLGLPVYGSALTAALVAAPKPLRLYRRLVWGSPRPAQVEVAERVGPLHLLPTPGHAPDHVALYDPEAGLFFGGDLFLGVRASLATPGFDLQALLQSLRRALALKPRAFYCAHAGPLQAPLEALQAKLDFLEGKREEALRLKARGLTPKEALRRLFGGESPLALLSGGEMSRLAFVEALMMEP | failed
11 | MLYRLEKCCTPEIRLLSTYDVCSIAIAAPMRATRSQGVWDFFWETILMAYTTAQLVTAYTNANLGKAPDAATTLTLDAYATQTQTGGLSDAAALTNTLKLVNSTTAVAIQTYQFFTGVAPSAAGLDFLVDSTTNTNDLNDAYYSKFAQENRFINFSINLATGAGAGATAFAAAYTGVSYAQTVATAYDKIIGNAVATAAGVDVAAAVAFLSRQANIDYLTAFVRANTPFTAAADIDLAVKAALIGTILNAATVSGIGGYATATAAMINDLSDGALSTDNAAGVNLFTAYPSSGVSGSTLSLTTGTDTLTGTANNDTFVAGEVAGAATLTVGDTLSGGAGTDVLNWVQAAAVTALPTGVTISGIETMNVTSGAAITLNTSSGVTGLTALNTNTSGAAQTVTAGAGQNLTATTAAQAANNVAVDGGANVTVASTGVTSGTTTVGANSAASGTVSVSVANSSTTTTGAIAVTGGTAVTVAQTAGNAVNTTLTQADVTVTGNSSTTAVTVTQTAAATAGATVAGRVNGAVTITDSAAASATTAGKIATVTLGSFGAATIDSSALTTVNLSGTGTSLGIGRGALTATPTANTLTLNVNGLTTTGAITDSEAAADDGFTTINIAGSTASSTIASLVAADATTLNISGDARVTITSHTAAALTGITVTNSVGATLGAELATGLVFTGGAGADSILLGATTKAIVMGAGDDTVTVSSATLGAGGSVNGGDGTDVLVANVNGSSFSADPAFGGFETLRVAGAAAQGSHNANGFTALQLGATAGATTFTNVAVNVGLTVLAAPTGTTTVTLANATGTSDVFNLTLSSSAALAAGTVALAGVETVNIAATDTNTTAHVDTLTLQATSAKSIVVTGNAGLNLTNTGNTAVTSFDASAVTGTGSAVTFVSANTTVGEVVTIRGGAGADSLTGSATANDTIIGGAGADTLVYTGGTDTFTGGTGADIFDINAIGTSTAFVTITDAAVGDKLDLVGISTNGAIADGAFGAAVTLGAAATLAQYLDAAAAGDGSGTSVAKWFQFGGDTYVVVDSSAGATFVSGADAVIKLTGLVTLTTSAFATEVLTLA | failed
12 | MLYSSDLLAIVGAGEQASLSPRRLCLFKTTTGLPLRELNFLTSILAVRMNKKRLVVVLLEKTFVYDLNTLVMLDTIDTVPNPKGLSAFSPSLEGCYLAVPASTTKGSVLVYNVMDLQSHSEIDAHRSPLAAIALSSNGMYIATGSEQGTLIRVHLVSEATKSYSFRRGTYPSTIYSLSFGPSTQLPDILIATSSSGSIHAFSLSLAINQRSKRSTSFLGSVLPDSVSDALDPAHHHVLQNAVSSGIRSYAVVRKIDKLEGTSSPSHFTSLRATVSVITYNGYFQEYTLSINNKNESLWTLEREFNLFSITTG | failed
13 | MLYTTFSAIIPSFLIILIGYTVGKIFSEETMGLASKVAIWVMVPTVTFTFINEYTPSFSTLGEFGLGVAIIFVIFYLYSRLFKEKKEVIHVTAVTANVGYLGYPILLSLWGEEALSLGVVYATLNIIMFSAVLPMFLGEKVNVKNLFKLPYVYALVAGFLTGKLGWSFRELPEWLVNAILMLKQSAIPYLLIYVGLSVSKLKLGRHLSKIGGIIVVNKLFLAPLIALVFALIYGLEGLTAKVFVLETAMPAAVNAVILTSALGGDSETVSYGVTLTTFFAIFTLPVWAVILESIFG | failed
14 | MMAGFAQTTITKINQFYERWMPRLPAEMTARNVLVFCVVCLLCIGSVMVASASMPYAEYMHENPFHYVVRHAISIATAAIVAYLVYKVPLNVWFKNTFSFWLITILLLLAVLVIGTEVNGSRRWIRLAGFTLQPTEVAKVMMAIFTADYVVRRAKEVRTHWKGLVRLSGVMAITVGLIIAEPDLGATVVIVLMMVGIFFLAGAPPTQFAIMLGAVVMGIGFLILFEPYRLARAMSFTNPWADPLGTGYQLSNALMAFGRGEWFGTGLGHSVQKLSYLPEAHTDFMLAVLGEEFGFVGISIVIGLSFIMLACCIKIGHRALKHNFLRAGYLAYGISIIFLLQIIVNAGMNMGLMPTKGLTLPFISYGGTSLMMCAAMISLILRIDASTQEINPDREESNF | failed
15 | MMARVEKLRELMKENNLQGFLVTSPYNLRYLTNFTGTTGLAMITLDKAFFVTDFRYTEQAAEQATGFTIVKNTGHIFDEVADLAERLQLDNLAFEETQVSFADYSLLEEILPCELVPVMGLIEELREVK | not failed
16 | MMCAARNTMSSSGSSPSGSDLQAFVMEFIITGFLMLVVCAVTTTKRTTEELEGLIIGATVTLNVIFVGEVSGASMNPARSIGPALVWGCYKGIWIYLLAPTLGAVSRALIHKMLPSIPNAEPKFSKTGSSHKRVSDLPL | failed
17 | MMDGSTFYFVAWIGWIIVTFFMKKDPIRWKLGACILIFIICSPLHVTIASFVVSVNALLLCIISFIGITLYSVWKKLYSLLSALIIAMLYTSFHLLEIYDPIWIVVDRVFLLSSALVYASVLLHGDRILRLCSLYVGMLQAELLVTFIFSKLNFPYDYGSLAFFDIVAISTLFMAILFWIAKASVYMERFKRKTRKRKARVIHD | failed
18 | MMDVARAKFLPHEQVTFQVADATTLPFENEAFDAVVCQFGVMFFDKDTAFREAYRTLGRGGRYLFSVWDSRRYNPFASLAFEVLKQFFPLNPPRFLEAPVSSFEIDPIKEALIQSGFERIVISVQGREHDILDVRTFARGLVFSPVIEEIRERGGVEPEDIIAALAEALKREYGSRPTRYPMQAILFEAEKP | failed
19 | MMDVNSSGRPDLYGHLRSFLLPEVGRGLPDLSPDGGADPVAGSWAPHLLSEVTASPAPTWDAPPDNASGCGEQINYGRVEKVVIGSILTLITLLTIAGNCLVVISVCFVKKLRQPSNYLIVSLALADLSVAVAVMPFVSVTDLIGGKWIFGHFFCNVFIAMDVMCCTASIMTLCVISIDRYLGITRPLTYPVRQNGKCMAKMILSVWLLSASITLPPLFGWAQNVNDDKVCLISQDFGYTIYSTAVAFYIPMSVMLFMYYQIYKAARKSAAKHKFPGFPRVEPDSVIALNGIVKLQKEVEECANLSRLLKHERKNISIFKREQKAATTLGIIVGAFTVCWLPFFLLSTARPFICGTSCSCIPLWVERTFLWLGYANSLINPFIYAFFNRDLRTTYRSLLQCQYRNINRKLSAAGMHEALKLAERPERPEFVLITRTSGVHQALENFPWGNEVNRWRKSCEYFCTDKMLTTVEKKVMIHD | failed
20 | MMEEVARVVACDNQGWLTVEVELKSTCKSCNSSESCGTSAVAQAFSSKTQQFSIQSERTCEVGELLKLGLPESVILKAAALVYLMPLLGLFLGALSGQFFAGLFQINADLSAIGFAALGAITAWLIGKRKAKQLEVDSQPVILAYLGAGISLEKLPV | failed
21 | MMEHHKVHTTIQALQAKRKKLLTELAELEAEIKVSSERKSSFNISLSPSLLAEIEEIEYEEKTSKERRINHSVLLSPSFMAKVDEYMKEKGFSNRSLLFEKALEFYMLKHP | failed
